Assay results taken from publication PMC8351538 (Molecular Biology of the Cell, 2021).
Read-outs that look alike come from different tables or passages of the source.

T1: Gyp6 (S. cerevisiae (endogenous, purified …, UniProt P32806 1-458))
T1 sequence: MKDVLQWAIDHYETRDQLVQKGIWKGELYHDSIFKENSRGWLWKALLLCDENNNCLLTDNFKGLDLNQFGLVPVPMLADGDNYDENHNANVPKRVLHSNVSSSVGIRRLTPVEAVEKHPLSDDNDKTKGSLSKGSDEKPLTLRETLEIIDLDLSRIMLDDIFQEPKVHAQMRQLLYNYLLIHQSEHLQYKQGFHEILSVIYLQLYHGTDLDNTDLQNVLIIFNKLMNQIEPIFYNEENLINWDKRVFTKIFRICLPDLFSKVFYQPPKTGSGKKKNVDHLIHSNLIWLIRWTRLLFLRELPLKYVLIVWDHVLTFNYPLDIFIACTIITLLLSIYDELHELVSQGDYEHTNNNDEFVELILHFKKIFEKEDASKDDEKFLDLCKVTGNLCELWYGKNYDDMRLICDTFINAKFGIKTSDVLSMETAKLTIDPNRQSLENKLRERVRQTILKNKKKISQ

T2: Gdi1 (S. cerevisiae, UniProt P39958 1-451)
T2 sequence: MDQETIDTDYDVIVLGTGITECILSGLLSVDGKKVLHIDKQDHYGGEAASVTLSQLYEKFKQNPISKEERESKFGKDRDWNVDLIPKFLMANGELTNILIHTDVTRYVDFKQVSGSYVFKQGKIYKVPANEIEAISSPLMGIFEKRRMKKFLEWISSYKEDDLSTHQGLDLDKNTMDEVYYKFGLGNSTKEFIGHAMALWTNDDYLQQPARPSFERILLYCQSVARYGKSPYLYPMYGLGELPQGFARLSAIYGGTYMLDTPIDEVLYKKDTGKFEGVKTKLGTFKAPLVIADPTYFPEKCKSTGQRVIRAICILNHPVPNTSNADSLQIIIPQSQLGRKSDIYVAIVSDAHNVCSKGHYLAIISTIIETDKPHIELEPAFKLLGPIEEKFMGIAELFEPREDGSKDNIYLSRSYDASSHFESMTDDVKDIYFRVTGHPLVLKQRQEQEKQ


Tests used:
[1] = biological target: T1, Gyp6; assay: liposome flotation
[2] = biological target: T2, Gdi1; assay: SEC
[3] = biological target: T1, Gyp6; assay: liposome flotation; remark: listed apart in the source
[4] = biological target: Sec7 (S. cerevisiae (endogenous, purified …, UniProt P11075 1-2009)); assay: liposome flotation
Chain of Sec7 (S. cerevisiae (P11075 whole entry): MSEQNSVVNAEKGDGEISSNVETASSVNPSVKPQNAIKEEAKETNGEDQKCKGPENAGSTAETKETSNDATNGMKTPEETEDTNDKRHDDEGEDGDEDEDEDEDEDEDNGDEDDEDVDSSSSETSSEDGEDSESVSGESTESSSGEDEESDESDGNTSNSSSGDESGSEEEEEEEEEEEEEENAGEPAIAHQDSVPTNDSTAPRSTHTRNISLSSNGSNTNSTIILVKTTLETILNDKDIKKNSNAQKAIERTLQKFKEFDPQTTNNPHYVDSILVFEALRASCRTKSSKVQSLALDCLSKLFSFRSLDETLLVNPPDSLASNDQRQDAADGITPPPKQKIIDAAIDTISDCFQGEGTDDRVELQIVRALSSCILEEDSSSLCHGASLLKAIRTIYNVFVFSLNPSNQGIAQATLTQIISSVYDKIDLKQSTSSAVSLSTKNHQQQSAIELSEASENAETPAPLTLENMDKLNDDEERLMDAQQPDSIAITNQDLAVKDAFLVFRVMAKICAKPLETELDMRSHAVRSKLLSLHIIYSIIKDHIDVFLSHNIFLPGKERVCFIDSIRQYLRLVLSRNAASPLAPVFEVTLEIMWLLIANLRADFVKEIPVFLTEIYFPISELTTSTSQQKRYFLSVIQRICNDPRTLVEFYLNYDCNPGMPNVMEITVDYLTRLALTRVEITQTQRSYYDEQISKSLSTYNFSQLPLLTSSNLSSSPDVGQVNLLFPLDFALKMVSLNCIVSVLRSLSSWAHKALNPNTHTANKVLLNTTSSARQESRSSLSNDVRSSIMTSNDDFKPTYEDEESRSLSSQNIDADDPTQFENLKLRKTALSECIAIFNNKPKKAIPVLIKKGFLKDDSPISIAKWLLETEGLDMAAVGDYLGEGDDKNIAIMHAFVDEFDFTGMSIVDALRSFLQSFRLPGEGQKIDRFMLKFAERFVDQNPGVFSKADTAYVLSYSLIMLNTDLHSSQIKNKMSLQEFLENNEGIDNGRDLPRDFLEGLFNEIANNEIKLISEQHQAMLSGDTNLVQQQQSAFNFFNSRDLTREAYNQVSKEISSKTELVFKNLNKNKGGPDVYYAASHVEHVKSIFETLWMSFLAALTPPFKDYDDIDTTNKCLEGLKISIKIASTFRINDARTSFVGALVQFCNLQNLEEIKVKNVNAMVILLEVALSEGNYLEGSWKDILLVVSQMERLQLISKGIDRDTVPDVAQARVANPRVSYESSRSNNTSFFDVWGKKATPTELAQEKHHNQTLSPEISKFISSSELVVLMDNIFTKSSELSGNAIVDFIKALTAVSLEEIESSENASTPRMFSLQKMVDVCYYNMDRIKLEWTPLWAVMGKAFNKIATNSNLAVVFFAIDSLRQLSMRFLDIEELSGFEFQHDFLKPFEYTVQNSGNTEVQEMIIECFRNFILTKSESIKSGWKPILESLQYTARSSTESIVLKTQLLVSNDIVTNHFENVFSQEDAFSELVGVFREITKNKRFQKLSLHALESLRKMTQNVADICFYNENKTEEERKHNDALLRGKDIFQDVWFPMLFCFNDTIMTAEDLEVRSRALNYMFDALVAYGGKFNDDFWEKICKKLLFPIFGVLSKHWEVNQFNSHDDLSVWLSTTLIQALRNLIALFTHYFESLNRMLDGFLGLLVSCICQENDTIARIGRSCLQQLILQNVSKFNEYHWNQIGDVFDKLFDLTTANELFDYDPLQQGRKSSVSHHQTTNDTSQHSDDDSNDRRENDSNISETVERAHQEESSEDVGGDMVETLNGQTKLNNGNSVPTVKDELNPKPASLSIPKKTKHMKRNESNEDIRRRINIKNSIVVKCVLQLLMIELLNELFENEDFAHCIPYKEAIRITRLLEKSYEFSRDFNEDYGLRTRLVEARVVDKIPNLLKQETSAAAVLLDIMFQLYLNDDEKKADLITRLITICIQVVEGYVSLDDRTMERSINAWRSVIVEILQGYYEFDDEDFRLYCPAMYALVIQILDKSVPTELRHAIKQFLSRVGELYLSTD

Binder | binding result [1] | binding result [2] | binding result [3] | binding result [4]
myristoylated Arl1 (natural protein, N-myristoylated) MGNIFSSMFDKLWGSNKELRILILGLDGAGKTTILYRLQIGEVVTTKPTIGFNVETLSYKNLKLNVWDLGGQTSIRPYWRCYYADTAAVIFVVDSTDKDRMSTASKELHLMLQEEELQDAALLVFANKQDQPGALSASEVSKELNLVELKDRSWSIVASSAIKGEGITEGLDWLIDVIKEEQL | binds |  |  | 
prenylated Ypt1 (natural protein, prenylated in vitro (geranylgeranyl pyrophosphate, GGTase)) not shown |  | binds |  | 
prenylated Ypt6 (natural protein, prenylated in vitro (geranylgeranyl pyrophosphate, GGTase)) MSRSGKSLTKYKIVFLGEQGVGKTSLITRFMYDTFDDHYQATIGIDFLSKTMYLDDKTIRLQLWDTAGQERFRSLIPSYIRDSRVAIIVYDITKRKSFEYIDKWIEDVKNERGDENVILCIVGNKSDLSDERQISTEEGEKKAKLLGAKIFMETSTKAGYNVKALFKKIAKSLPEFQNSESTPLDSENANSANQNKPGVIDISTAEEQEQSACQC |  | binds |  | 
prenylated Ypt32 (natural protein, prenylated in vitro (geranylgeranyl pyrophosphate, GGTase)) MSNEDYGYDYDYLFKIVLIGDSGVGKSNLLSRFTTDEFNIESKSTIGVEFATRTIEVENKKIKAQIWDTAGQERYRAITSAYYRGAVGALIVYDISKSSSYENCNHWLTELRENADDNVAVGLIGNKSDLAHLRAVPTDEAKNFAMENQMLFTETSALNSDNVDKAFRELIVAIFQMVSKHQVDLSGSGTNNMGSNGAPKGPTISLTPAPKEDKKKKSSNCC |  | binds | binds | binds
